This passage reports stoichiometry N results from PMC7160556.

Test [1] addresses T1, endogenous 14-3-3ζ (YWHAZ) (human (endogenous in A549)), P63104.
T1 chain: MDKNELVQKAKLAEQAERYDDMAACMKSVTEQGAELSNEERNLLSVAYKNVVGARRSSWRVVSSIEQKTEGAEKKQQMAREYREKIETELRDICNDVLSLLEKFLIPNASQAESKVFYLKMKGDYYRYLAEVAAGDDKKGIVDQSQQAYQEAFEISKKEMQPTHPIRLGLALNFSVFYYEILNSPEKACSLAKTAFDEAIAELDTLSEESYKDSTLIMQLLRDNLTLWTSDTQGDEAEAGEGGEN
The test can be described thus: native gel or EMSA. As to conditions: remark: other sources report otherwise.

Test [2] deals with T2, untagged 14-3-3ζ, overexpressed, P63104.
T2 chain: T1 chain
The test can be described thus: native gel or EMSA. The note with it: remark: other sources report otherwise. For orientation: In EMSA bound probe runs differently from free probe, usually more slowly.

B1: endogenous 14-3-3ζ (YWHAZ), P63104 1-245 (natural protein)
chain: T1 chain
The term stoichiometry N denotes the number of molecules, sites or subunits per partner or assembly. As for B1, in test [1], the stoichiometry N stood at 2.

B2: untagged 14-3-3ζ, overexpressed, P63104 1-245 (natural protein)
chain: T1 chain
In the case of B2, the stoichiometry N in test [2] came out at 2.
